Consider one sequence from the Immune Epitope Database (IEDB).

One may read the pKd as −log10 of the Kd, conventionally taken in molar units. The low end stands for a high Kd, the high end for a low Kd.

pKd: −log10 of the molar value.

One test deals with HLA-B*15:42. Put plainly: IEDB peptide-MHC binding, purified MHC/competitive/fluorescence; filed as Kd, often an IC50 or EC50 that approximates it; ≥ and ≤ were set here for values at or beyond the usual limits of such assays. The conditions noted are these: source organism: Escherichia coli K-12.
For the next test, the target named is HLA-A*32:07. The test is described as above. The conditions noted are these: source organism: Escherichia coli K-12.
The target of the next test is HLA-B*83:01. Described as above. As to conditions: source organism: Escherichia coli K-12.
A further test addresses HLA-B*27:20. The test is described as above. As to conditions: source organism: Escherichia coli K-12.
The target of the next test is HLA-B*40:13. The test is described as above. As to conditions: source organism: Escherichia coli K-12.
The target in another test is HLA-B*45:06. The test is described as above. The conditions noted are these: source organism: Escherichia coli K-12.
The next test deals with HLA-C*06:02. As to the kind of experiment: IEDB peptide-MHC binding, purified MHC/direct/fluorescence; filed as Kd, often an IC50 or EC50 that approximates it; ≥ and ≤ were set here for values at or beyond the usual limits of such assays. The conditions noted are these: source organism: Escherichia coli K-12.
For a further test, the target named is HLA-B*73:01. The description is as above. The conditions noted are these: source organism: Escherichia coli O157:H7.

RQWGMGFLL: the pKd with HLA-B*15:42 is not above 5.30; with HLA-A*32:07, 8.92; with HLA-B*83:01, not above 5.30; with HLA-B*27:20 it was not below 10.00; with HLA-B*40:13 it was not below 9.00; in the test with HLA-B*45:06 it was not above 5.30. Further, the pKd is 5.77 with HLA-C*06:02 and 5.22 with HLA-B*73:01.
